B1: myoglobin: structurally related protein, inactive in the assay (protein, UniProt P02144 2-154, looked up)
Myoglobin: GLSDGEWQLVLNVWGKVEADIPGHGQEVLIRLFKGHPETLEKFDKFKHLKSEDEMKASEDLKKHGATVLTALGGILKKKGHHEAEIKPLAQSHATKHKIPVKYLEFISECIIQVLQSKHPGDFGADAQGAMNKALELFRKDMASNYKELGFQG
B2: macrophage inflammatory protein 1-alpha (protein, UniProt P10147 24-92, looked up)
C-C motif chemokine 3: SLAADTPTACCFSYTSRQIPQNFIADYFETSSQCSKPGVIFLTKRSRQVCADPSEEWVQKYVSDLELSA

Experiments:
[1] = system: CFU-MIX; assay: CFU-MIX cycling assay in vitro with Ara C; type: cell-based, mouse
Procedure: A similar assay can be performed in vitro, using the cycling status of CFU-MIX instead of CFU-S. The assay is performed as described above for the CFU-S assay except that cytosine arabinoside (Ara C, 30 mg/ml) is used as the cycle-specific toxic agent instead of high dose tritiated thymidine (see B. I. Lord in Haemopoiesis—A Practical Approach, N. G. Testa and G. Molineux (Eds.), IRL Press 1993; Pragnell et al. in Culture of Hematopoietic Cells, R. I. Freshney, I. B. Pragnell and M. G. Freshney (Eds.), Wiley Liss 1994) and a mouse strain with high endogenous cycling rates (Balb/c) is used instead of testosterone-treated BDF1 mice.
To test the activity of these sequences, the CFU-MIX cycling assay was conducted as described in Example 14. As shown in Tables 17-19, these peptides all are active in this assay.

[2] = system: HPP-CFC; assay: High proliferative potential colony (HPP-CFC) assay after pre-incubation; type: cell-based, mouse; details: 200 ng/ml, 4 hours pre-incubation, day 14
Procedure: An in vitro assay for assessing murine reconstituting stem cells and early precursors is the high proliferative potential colony ([…]) assay; other related assays, e.g., CFU-A, CFU-GM, CFU-E, and CFU-GEMM, detect progressively restricted progenitor populations (M. Moore, Blood 177:2122-2128, 1991). […] BDF1 mice were treated with 5-fluorouracil (200 mg/kg i.p.) before their bone marrow was assayed for HPP-CFC numbers. Cells were washed by centrifugation and incubated at densities of 10^6 to 5×10^6 /ml in medium with either no added agent (Controls), pINPROL (25 ng/ml) or MIP-1α (200 ng/ml) for 4 hours. After incubation, cells were washed and plated in agar (0.3%) with 30% FCS and combined conditioned medium from 5637 and WEHI-3B cell lines (7.5% of each conditioned medium, as recommended by Sharp et al., 1991). Plating concentration was 5×10^4 cells/ml in 60 mm dishes.

Molecule	activity in the CFU-MIX cycling assay [1]	% of Control (HPP-CFU) [2]
B1	inactive	–
B2	–	101%
